For the data set, the system named is MS2 coat protein. The data set can be described thus: apparent KD of MS2 coat protein; designed switch direction (-1 OFF switch, 1 ON switch): -1; higher = weaker reporter binding. Summed up: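 An oligonucleotide input, 200 uM small-molecule ligand, or no input was present during titration of SNAP-549-labelled MS2 coat protein, which was doubled from 0.7 or 1.5 nM to 3 µM. Designed RNA switches had been transcribed on Illumina chips by stalled E. coli RNA polymerase. Apparent KD per design is the median over clusters of curves fitted to normalised cluster fluorescence.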

Setting [1] is: input ligand: microRNA oligo, concentration not stated.
The mark [2] stands for this setting: Eterna round: R95, input ligand: microRNA oligo, concentration not stated.
The mark [3] stands for this setting: Eterna round: R95, input ligand: FMN 200 uM.
Where [4] appears, read: Eterna round: R95, input ligand: none.

As for “CAGUACUGAGGAUAUACAUGAGGAUCACCCAUGUCCUUCAGCUAGGAAACUAGCGAAAGUAGAAGGCAGUACUG [Eli x3 4.001] (Eterna round: R97, puzzle: Exclusion 3)”, the “apparent KD of MS2 coat protein” value by setting is: (input ligand: FMN 200 uM) 366 nM; (input ligand: none) 13.4 nM.
“CACCGUUAAAGAGGAUAUCGUACAUGAGGAUCACCCAUGUAAUAAAUGAGAAUUUCGGAUGUAUGCGAGAAGGCUUAAAUCGGC [Ostracism 47 - Jieux - Exclusion NG 2] (Eterna round: R96, puzzle: Exclusion NG 2)”: the “apparent KD of MS2 coat protein” value under setting [1] came to 39.5 nM.
Turning to “AUCCCUUGAGUAAGGAUAUGGCCAGGGAGGUCUGGCCAGAAGGUACAUGAGGAUCACCCAUGUAGGUUGUCGCA [Eternabot (L2) Solution 44] (Eterna round: R97, puzzle: Brourd's mod of Exclusion 4)”, the “apparent KD of MS2 coat protein” value runs as follows: (input ligand: FMN 200 uM) 56 nM; (input ligand: none) 20.6 nM.
For “UAUUAGCAAGCGAGAUCCCACAUGAGGAUCACCCAUGUGCUCGUCUUAUAUAAGGUACUGUACGAUAGUACGGUACC [Mat - Sensor, turn-off var - Eli Mod - D28] (Eterna round: R97, puzzle: Sensor, turn-off variant 1)”, the “apparent KD of MS2 coat protein” value (input ligand: FMN 200 uM) turned out to be 16.7 nM and the “apparent KD of MS2 coat protein” value (input ligand: none) was found to be 14.6 nM.
As for “GGUCGGCGAGGAUAUACAUGAGGAUCACCCAUGUGAUAGAUUAUCGCGAAAGCGUAAUGUAGAAGGCGCUGACG [jl-ex3-4.10 jl mod] (Eterna round: R97, puzzle: Exclusion 3)”, the “apparent KD of MS2 coat protein” value reads like this: (input ligand: FMN 200 uM) 1280 nM; (input ligand: none) 40.7 nM.
Regarding “AACUCUGAGAAGGAUAUUCAGUGGGAAACGACAGAAGAAGGUUUCACAUGAGGAUCACCCAUGUCGAAUAGUGA [EX6 #75] (Eterna round: R97, puzzle: Exclusion 6)”, the “apparent KD of MS2 coat protein” value amounted to 46.8 nM (input ligand: FMN 200 uM) and 48.8 nM (input ligand: none).
As to “AAGGUGUUAGGAUAUCGUAGUUUGUGGCAGACGGGAUUUUGCGAGAAGGAACAUGAGGAUCACCCAUGUCGGAU [JR_Exclu4_Sub041] (puzzle: Exclusion 4)”, the “apparent KD of MS2 coat protein” value under setting [2] came out at 27.1 nM.
As to “AGAAAGCAAGGAUAUACAAGUAAACGACGGAAAGUAGAGAGACAUGAGGAUCACCCAUGUAGAAGGUGCGAGAG [JR_Exclu2_Sub034] (puzzle: Exclusion 2)”, the “apparent KD of MS2 coat protein” value under setting [3] amounted to 24.7 nM, the “apparent KD of MS2 coat protein” value under setting [2] amounted to 26.1 nM and the “apparent KD of MS2 coat protein” value under setting [4] stood at 26.2 nM.
As to “GCUGGGUCAGGAUAUACAAGAUCGAAAGAUCUGUGAAACGAACAUGAGGAUCACCCAUGUAGAAGGGACUGGGC [ChP 11-04-2015 #9] (puzzle: Exclusion 2)”, the “apparent KD of MS2 coat protein” value under setting [2] was found to be 16.6 nM.
As to “AUGGCAAAGUUAGGAUAUGCAGUCUCCAAGACUGCAGAAGGAACGGUCCUCCUCCCUGAAACAUGAGGAUCACCCAUGUAAAGC [Eternabot solution 45] (Eterna round: R96, puzzle: Exclusion NG 1)”, the “apparent KD of MS2 coat protein” value was determined as 56.4 nM (input ligand: FMN 200 uM), 53.7 nM under setting [1] and 93.8 nM (input ligand: none).
Regarding “AUAAUGUGAGGAUAUCACGGCCCGGUAAAUCCGGUAAACGAUGAGAAGGCACAUGAGGAUCACCCAUGUUCCUG [EX4 A.2] (Eterna round: R97, puzzle: Exclusion 4)”, the “apparent KD of MS2 coat protein” value by setting is: (input ligand: FMN 200 uM) 45.7 nM; (input ligand: none) 16.2 nM.
Regarding “UGUCAAGCAGGAUAUGCACGUAAUAACAUGAGGAUCACCCAUGUGACCGAUUUAUAUUCUGCAGAAGGGCUUGUUU [LRO-Excl5-19-mod of Erxesoan mod by Eli Fisker] (Eterna round: R97, puzzle: Exclusion 5)”, the “apparent KD of MS2 coat protein” value came out at 109 nM (input ligand: FMN 200 uM) and 26.7 nM (input ligand: none).
As to “GAAUUGUGAGGAUAUUAGUUGUACGUCAAUAGACGUAUAAGUGAGAAGGCACAUGAGGAUCACCCAUGUUCCUG [salish99_ex4_r4_401] (Eterna round: R97, puzzle: Exclusion 4)”, the “apparent KD of MS2 coat protein” value is, setting by setting: (input ligand: FMN 200 uM) 57.8 nM; (input ligand: none) 19.4 nM.
In the case of “GGCUGCAAUGUAGGAUAUCUGCACGUUUAGUGCAGAGAAGGACAUGAGGAUCACCCAUGUAUAGUAGCUUCGGCUACAGCAGCC [ENG1-D2] (Eterna round: R96, puzzle: Exclusion NG 1)”, the “apparent KD of MS2 coat protein” value runs as follows: (input ligand: FMN 200 uM) 18.4 nM; under setting [1], 11.4 nM; (input ligand: none) 17.2 nM.
As to “GGAUCGAGAGUGAGGAUAUGCUGGUCCUUGGAUCAGCAGAAGGCACAUGAGGAUCACCCAUGUGAUUUCGAUCC [Mat - Exclusion 4 - Eli Mod - D40] (Eterna round: R97, puzzle: Brourd's mod of Exclusion 4)”, the “apparent KD of MS2 coat protein” value by setting is: (input ligand: FMN 200 uM) 34.6 nM; (input ligand: none) 18.1 nM.
As for “ACGCUACAUGAGGAUCACCCAUGUGAGGAUAUUUGAUCCAGGCAGCAAAGGAUGAUACGGAGAAGGUACAUGGU [Eternabot (L1) Solution 35] (Eterna round: R97, puzzle: Exclusion 1)”, the “apparent KD of MS2 coat protein” value runs as follows: (input ligand: FMN 200 uM) 265 nM; (input ligand: none) 147 nM.
As to “CUUGUGUAAGGAUAUCGAGUAGAACGCUCGAGUUCUGAGCUCGAGAAGGUACAUGAGGAUCACCCAUGUUAAAA [Atusgete] (puzzle: Exclusion 4)”, under setting [2], the “apparent KD of MS2 coat protein” value amounted to 42.2 nM.
“AGUCCUAGUCAAGGAUAUACACCGAAGAAAUACGUAGAAGGUGACAUGAGGAUCACCCAUGUAGGGACUCUGGAAACAGAGGAA [Arordi] (Eterna round: R96, puzzle: Exclusion NG 1)”: the “apparent KD of MS2 coat protein” value is 161 nM (input ligand: FMN 200 uM), 93.4 nM under setting [1] and 218 nM (input ligand: none).
Turning to “ACAGUUCUGCAAGGAUAUCGUCCUAGUUUGUUUCGAGAAGGUGCUUUAGUUUAUUCCUUUUGUUUACAUGAGGAUCACCCAUGU [JR_ExcNG1_Sub050] (Eterna round: R96, puzzle: Exclusion NG 1)”, the “apparent KD of MS2 coat protein” value under setting [1] was 18 nM.
On to “UUUCUCGUUGUGAGGAUAUCGUUUUUGUUUUGGAUCGAGAAGGCACAUGAGGAUCACCCAUGUUUGUUGUGGUU [JR_BMOE4_Sub088] (puzzle: Brourd's mod of Exclusion 4)”, for which, under setting [2], the “apparent KD of MS2 coat protein” value came to 93.3 nM.
Consider “AAUAAUCAUGUAGGAUAUGCGUGGCGAAGCUAUGCAGAAGGACAUGAGGAUCACCCAUGUUCUAGCGUCUGCGUACAGAUGCUA [Mat - Exclusion NG 1 - Mod of JL - D79] (Eterna round: R96, puzzle: Exclusion NG 1)”, for which the “apparent KD of MS2 coat protein” value worked out at 123 nM (input ligand: FMN 200 uM), 36.6 nM under setting [1] and 37.1 nM (input ligand: none).
For the sequence “GGUCCUGAUGAUUUUCUAUACAUGAGGAUCACCCAUGUAUGUGUAUUUUGUUUUUCGCUUUUUGGUCGUCAAUAAUA [Mod-Hoo-honey] (Eterna round: R97, puzzle: Sensor, turn-off variant 1)”, the “apparent KD of MS2 coat protein” value is 43.8 nM (input ligand: FMN 200 uM) and 44.3 nM (input ligand: none).
Regarding “GAUUGACAUGAGGAUCACCCAUGUGAGGAUAUCGGCUGGACCGUGUUGGCUUGGCUUUCGAGAAGGCGCAUAGG [Exclusion 1 V47] (puzzle: Exclusion 1)”, the “apparent KD of MS2 coat protein” value reads like this: under setting [3], 53.9 nM; under setting [2], 42.6 nM; under setting [4], 53.7 nM.
For “GUUAAGGUAGGAUAUACGAUAAUAUAGGGUAGAAUUAUAACACAUGAGGAUCACCCAUGUAGAAGGACCAAUUG [Mat - Exclusion 2 - Mod of my Tesla design - D52] (puzzle: Exclusion 2)”, under setting [2], the “apparent KD of MS2 coat protein” value came to 25.8 nM.
With “GUAAACGCAGAGGAUAUAUCAGAUCAAAGCUGCAUAGAAGGCUGCACAUGAGGAUCACCCAUGUGGUCUUUAAG [Mat - Exclusion 6 - JL Mod - D4] (Eterna round: R97, puzzle: Exclusion 6)”, the “apparent KD of MS2 coat protein” value (input ligand: FMN 200 uM) amounted to 128 nM and the “apparent KD of MS2 coat protein” value (input ligand: none) was 18.4 nM.
For “CGUAUGUCAGGAUAUCGUGCAUACAACGAAAGUUCUAUGUGCGAGAAGGGACAUGAGGAUCACCCAUGUCUUCG [Omei Ex4 A13] (Eterna round: R97, puzzle: Exclusion 4)” the same measures were 42.8 nM and 23.6 nM.
For the sequence “AGUAGUAGUAUCCGAUCGUACAUGAGGAUCACCCAUGUAGCUAGACGUGCACGCGAUGCUCGUCAGACUACCAGAUG [salish99_TOv1_r3_036] (puzzle: Sensor v3, turn-off variant 1)”, the “apparent KD of MS2 coat protein” value was 202 nM under setting [3], 168 nM under setting [2] and 225 nM under setting [4].
For the sequence “GAAAAGGUAGGAUAUACGAAAAAAAAGGGAAGAAAAAAAACACAUGAGGAUCACCCAUGUAGAAGGACCAAAAG [salish99_ex2_r3_064] (puzzle: Exclusion 2)”, the “apparent KD of MS2 coat protein” value was determined as 34.4 nM under setting [3], 21.6 nM under setting [2] and 20.6 nM under setting [4].
For the sequence “AGUUCCUUUGUGAGGAUAUCAAUGAUAUAACUGUAUGAGAAGGCACAUGAGGAUCACCCAUGUUUGUUGCUGCA [Eternabot (L1) Solution 78] (Eterna round: R97, puzzle: Brourd's mod of Exclusion 4)”, the “apparent KD of MS2 coat protein” value reads like this: (input ligand: FMN 200 uM) 106 nM; (input ligand: none) 20.1 nM.
The matching figures for “CAGUACUGAGGAUAUACAUGAGGAUCACCCAUGUGUUCCAGCUAGGAAACUAGCAUAUGUAGAAGGCAGUACUG [Eli x3 4.06] (Eterna round: R97, puzzle: Exclusion 3)”: 578 nM and 298 nM.
“AGUAGAUCUACGCUUGCGUGGAUCUGCUAGGCAGGUGUUACAUGAGGAUCACCCAUGUCCUCAUUUGUUCGUCUUAU [JL turnoff v2 99.17] (puzzle: Sensor v3, turn-off variant 2)”: the “apparent KD of MS2 coat protein” value by setting is: under setting [3], 378 nM; under setting [2], 153 nM; under setting [4], 604 nM.

The values above are taken from the supplement of paper PMC9170038.
